Literature values, collected in PMC5897016.

Target: Complement C5 (Homo sapiens) (UniProt P01031)

In the case of eculizumab, the Kd is given as < 0.05 nM.
